# Data published in publication PMC12865202.
# Target: Chicken CapZ (full length α/β) (chicken) (UniProt P13127)
# Assay: ITC
substance,measurement,value
"RavB (full length, purified) (natural protein)",Kd,10.8 nM
